Consider one molecule from patent US11473073B2, “Aminopeptidases for protein hydrolyzates” (DUPONT NUTRITION BIOSCIENCES APS, priority 2015, dated 2022).

Assay [1] concerns peptide WHWLQLKPGQPMY (SEQ ID NO:26). Kind of assay: Hydrolysis of proline containing peptide, LC-MS. In kind it is biochemical. The note with it: peptide 1 mg/mL, aminopeptidase 1 ug/mL, CPB-Buffer, 55° C.; FIG. 5-7. The procedure:
The peptide […] (SEQ ID NO:26) was hydrolysed with TRI03 and TRI035. The peptide (1 mg/mL) was incubated with 1 ug/mL of the aminopeptidase in 20 mM CPB-Buffer (20 mM Citric acid, 20 mM Phosphate. 20 mM Boric acid) at 55° C. Aliquots (50 μL) were stopped with 50 rel 5% TFA at the indicated time points and subjected to LC-MS analysis.
Capillary LC-MS/MS analyses were performed using an Agilent 1100 LC system (Agilent Technologies) interfaced to a LTQ Orbitrap Classic hybrid mass spectrometer (Thermo Scientific, Bremen, Germany). Samples were loaded onto a 15 cm Phenomenix Jupiter 4μ Proteo 90A, C4 analytical column. Separation was performed at a flow rate of 16 μL/min using a 10 min gradient of 0-40% Solvent B H2O/CH3CN/HCOOH (50/950/0.65 v/v/v) into the IONMAX® ion source (Thermo Scientific, San Jose). The LTQ Orbitrap Classic instrument was operated in a data-dependent MS/MS mode. The peptide masses were measured by the Orbitrap (MS scans were obtained with a resolution of 60 000 at m/z 400), and up to 2 of the most intense peptide m/z were selected and subjected to fragmentation using CID in the linear ion trap (LTQ). Dynamic exclusion was enabled with a list size of 500 masses, duration of 40 s, and an exclusion mass width of ±10 ppm relative to masses on the list.
The RAW files were accessed with the program Skyline 2.6.0.7176 (MacLean, B., et al., “Skyline: an open source document editor for creating and analyzing targeted proteomics experiments”, Bioinformatics, 2010, 26(7): p. 966-8) which uses the MS1 intensities to build chromatograms (Schilling, B., et al., “Platform-independent and label-free quantitation of proteomic data using MS1 extracted ion chromatograms in skyline: application to protein acetylation and phosphorylation”, Mol Cell Proteomics, 2012. 11(5): p. 202-14). The precursor isotopic import filter was set to a count of three, (M, M+1, and M+2) at a resolution of 60,000 and the most intense charge state was used. Peptide sequences of the substrate as well as cleavage products were typed into Skyline and intensities were calculated in each sample. […]

For assay [2] the test system is unchanged. The note with it: as described by Blinkovsky et al., Biochimica et Biophysica Acta 1480 (2000) 171-181; cited from earlier work.

B1: Aspergillus oryzae PepN 2: Aspergillus oryzae PepN 2 described by A. M. Blinkovsky et al., Biochimica et Biophysica Acta 1480 (2000) 171-181 (protein)
chain: RALVSPDEFPEDIQLEDLLEGSQQLEDFAYAYPERNRVFGGKAHDDTVNYLYEELKKTGYYDVYKQPQVHLWSNADQTLKVGDEEIEAKTMTYSPSVEVTADVAVVKNLGCSEADYPSDVEGKVALIKRGECPFGDKSVLAAKAKAAASIVYNNVAGSMAGTLGAAQSDKGPYSAIVGISLEDGQKLIKLAEAGSVSVDLWVDSKQENRTTYNVVAQTKGGDPNNVVALGGHTDSVEAGPGINDDGSGIISNLVIAKALTQYSVKNAVRFLFWTAEEFGLLGSNYYVSHLNATELNKIRLYLNFDMIASPNYALMIYDGDGSAFNQSGPAGSAQIEKLFEDYYDSIDLPHIPTQFDGRSDYEAFILNGIPSGGLFTGAEGIMSEENASRWGGQAGVAYDANYHAAGDNMTNLNHEAFLINSKATAFAVATYANDLSSIPKRNTTSSLHRRARTMRPFGKRAPKTHAHVSGSGCWHSQVEA
Regarding B1, the “hydrolysis of WHWLQLKPGQPMY to KPGQPMY and further down to QPMY” value in assay [1] is on record as “cleaves the peptide down to QPMY”. Moreover, the “hydrolysis of X-Pro bonds including those of WHWLQLKPGQPMY” value in assay [2] was “does not hydrolyze”.
